Source: patent publication US20260097113A1 (Pfizer, published 2026)

T1: RSV F protein of subtype A comprising a polypeptide of SEQ ID NO: 1 and a polypeptide of SEQ ID NO: 2 (RSV subtype A, UniProt P11209 137-513; P03420 26-109)
T1 construct: Stabilized prefusion F trimer made of three F2-F1 heterodimers; Produced recombinantly in CHO cells; also called RSV A; RSVA
T1 chain 1: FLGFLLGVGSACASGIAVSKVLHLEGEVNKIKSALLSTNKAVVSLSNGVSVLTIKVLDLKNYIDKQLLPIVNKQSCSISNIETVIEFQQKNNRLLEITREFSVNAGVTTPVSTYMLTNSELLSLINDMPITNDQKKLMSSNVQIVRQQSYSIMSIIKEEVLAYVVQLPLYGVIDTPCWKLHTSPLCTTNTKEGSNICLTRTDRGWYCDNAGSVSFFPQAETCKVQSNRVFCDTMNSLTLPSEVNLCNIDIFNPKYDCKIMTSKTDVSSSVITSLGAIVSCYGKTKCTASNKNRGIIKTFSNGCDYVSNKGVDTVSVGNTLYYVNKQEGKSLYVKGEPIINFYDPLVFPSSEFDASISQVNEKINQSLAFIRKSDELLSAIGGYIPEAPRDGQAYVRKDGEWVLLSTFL
T1 chain 2: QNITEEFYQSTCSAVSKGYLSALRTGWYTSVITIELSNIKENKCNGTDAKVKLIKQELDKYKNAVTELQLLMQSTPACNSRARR


How the values were obtained:
[1] = molecular target: RSV A + RSV B bivalent composition (RSV subtype A; RSV subtype B); test: AM14 Fab titration by SEC; Low-Fast cycle; 3 M 25°C
[2] = molecular target: T1, RSV F protein of subtype A comprising a …; test: AM14 ELISA; F19 (pH 7, 50 mM NaCl, 3% trehalose + 3% mannitol); T0
[3] = molecular target: T1, RSV F protein of subtype A comprising a …; test: AM14 ELISA; F13 (pH 7, 100 mM NaCl, 4.5% sucrose); 1 wk 25°C

Molecule | Prefusion Content (%) [1] [%] | AM14 prefusion content (%), relative to standard [2] [%] | AM14 prefusion content (%), relative to standard [3] [%]
AM14 Fab | 66 |  | 
AM14 (trimeric prefusion specific antibody of the AM14 ELISA) (antibody, V domains shown, Antibody as used in the AM14 ELISA, detected with an HRP-labeled secondary antibody) VH: EVQLVESGGGVVQPGRSLRLSCAASGFSFSHYAMHWVRQAPGKGLEWVAVISYDGENTYYADSVKGRFSISRDNSKNTVSLQMNSLRPEDTALYYCARDRIVDDYYYYGMDVWGQGATVTVSS VL: DIQMTQSPSSLSASVGDRVTITCQASQDIKKYLNWYHQKPGKVPELLMHDASNLETGVPSRFSGRGSGTDFTLTISSLQPEDIGTYYCQQYDNLPPLTFGGGTKVEIKR |  | 93 | 90
